What all share (experiment): pHLA tetramer staining of transfected HEK293T cells
In experiment [1] the target is HLA-B*57:01-LF9 A8 tetramer. Conditions: parent: est. 57; read off a plot.
Experiment [2] has as its target HLA-B*57:01-TW10 T3N tetramer. Conditions: read off a plot; for response: parent: est. 19, scale: relative to HLA-B*57:01-TW10 binding to KIR3DL1*001; for percent of parent (normalized to *001 (=100)): parent: est. 100.
Experiment [3] deals with HLA-B*57:01-TW10 tetramer. Conditions: parent: est. 100, read off a plot; for response: scale: relative to HLA-B*57:01-TW10 binding to KIR3DL1*001.
For experiment [4], the target named is HLA-B*57:01-LF9 L8 tetramer. As to conditions: parent: est. 58; read off a plot.

As for “FLAG-tagged KIR3DL1*001 (from UniProt P43629) P163S”, the results for the response in experiment [1], in experiment [2] and in experiment [3] were 45, 9 and 97, respectively. The percent of parent (normalized to *001 (=100)) in experiment [2] is 41; in experiment [3], 97.

Consider “FLAG-tagged KIR3DL1*001 (from UniProt P43629) P199L”, for which, in experiment [1], the response was determined as 70. Moreover, in experiment [3], the percent of parent (normalized to *001 (=100)) was 190 and the response is 190.

In the case of “FLAG-tagged KIR3DL1*001 (from UniProt P43629) G138W”, the figures for the response in experiment [1], in experiment [4] and in experiment [2] were 40, 23 and 10, respectively. Besides, in experiment [2], the percent of parent (normalized to *001 (=100)) was 44.

As for “FLAG-tagged KIR3DL1*001 (from UniProt P43629) L166R”, the response amounted to 9 in experiment [1], 5 in experiment [4], 8 in experiment [2] and 48 in experiment [3]. For the same substance, the percent of parent (normalized to *001 (=100)) in experiment [2] is 36; in experiment [3], 48.

For the origin of these results see article PMC4442525.
